# According to US20260209372A1 (PROMETHEUS BIOSCIENCES, published 2026):
# Residue numbers refer to the chain shown, from its start.
# T1: human CD30L expressed on B16 cells (human, UniProt P32971 1-234)
# T1 construct: whole, on cells; B16 cell line transfected to express human CD30L; also called B16-huCD30L; hCD30L B16
# T1 sequence (looked up): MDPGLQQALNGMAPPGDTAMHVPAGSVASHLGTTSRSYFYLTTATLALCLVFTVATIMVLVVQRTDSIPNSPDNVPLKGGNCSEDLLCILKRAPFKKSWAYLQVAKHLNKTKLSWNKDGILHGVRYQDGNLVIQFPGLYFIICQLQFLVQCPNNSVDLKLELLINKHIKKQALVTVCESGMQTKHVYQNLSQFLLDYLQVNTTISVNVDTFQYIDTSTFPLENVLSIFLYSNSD
# T2: recombinant human CD30L (human, UniProt P32971 63-234)
# T2 construct: Recombinant or purified protein of the ELISA, BLI, Carterra and KinExA assays; construct not described; also called rhCD30L; huCD30L
# T2 sequence (looked up): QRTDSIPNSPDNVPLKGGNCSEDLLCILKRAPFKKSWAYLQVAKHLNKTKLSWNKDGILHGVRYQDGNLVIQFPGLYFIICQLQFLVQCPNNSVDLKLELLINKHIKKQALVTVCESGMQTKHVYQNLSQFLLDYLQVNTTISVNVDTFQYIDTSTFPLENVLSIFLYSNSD
# B1: Clone 2 (antibody, V domains shown)
# VH: EVQLVESGGGLVQPGRSLRLSCAASGFNFDDYAMHWVRQAPGKGLEWVSGISWRSGNIGYAGSVKGRFTISRDNAKNSLYLQMNSLRPEDSALYYCAKDKGIGFNWNYEGFDYWGQGTLVTVSS
# VL: DIQMTQSPSSLSASVGDRVTITCRASQGISNHLAWFQQKPGKAPKSLIYAASSLQSGVPSKFSGSGSGTDFTLTISSLQPEDFATYYCQQYVTYPLTFGGGTKVEIK
# notes: also called anti-CD30L antibody clone 2 (parental)
# B2: Clone 4 (antibody, V domains shown)
# VH: QVQLVESGGGVVQPGRSLRLSCAASGFPFSSYGMHWVRQAPGKGLEWVTFIWFDGNNKDYADSVKGRFSVSRDNSKNTLYLQMNSLRADDTAVYYCARNGVYYGSGAYVDYWGQGTLVTVSS
# VL: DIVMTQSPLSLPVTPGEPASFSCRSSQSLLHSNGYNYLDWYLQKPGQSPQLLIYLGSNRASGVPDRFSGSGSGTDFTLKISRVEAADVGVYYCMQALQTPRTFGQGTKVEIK
# notes: hybridoma clone
# B3: Clone 1 (antibody, V domains shown)
# VH: QVQLQESGPGLVKPSETLSLTCTVSGGSISGYYWSWIRQPPVKGLEWIGYIFYSGYTKYNPSLKSRVTISVDTSKNQFSLKLSSVTAADTAVYYCARDRWDFDYWGQGALVTVSS
# VL: AIQMTQSPSYLSASVGDRVTIACRASQGIRNNLGWYQQKPGKAPKLLIYAESSLQSGVPSRFSGSGSGTDFTLTISSLQPEDFATYYCLQDFNYPYTFGQGTKLEIK
# notes: also called anti-CD30L antibody clone 1 (parental)
# B4: Clone 3 (antibody, V domains shown)
# VH: B3 VH
# VL: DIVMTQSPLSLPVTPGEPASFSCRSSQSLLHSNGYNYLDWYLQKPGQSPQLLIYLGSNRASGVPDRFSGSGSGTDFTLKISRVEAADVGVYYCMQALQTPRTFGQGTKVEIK
# notes: hybridoma clone
# B5: anti-CD30L antibody clone 80 (antibody, V domains shown)
# VH: EVQLVESGGGLVQPGGSLRLSCEVSGFTFSSYDMHWVRQVTGTGLEWVSSIGIGGDTYYPGSVKGRFTISRENAKNSLYLQMNSLRGGDTGVYYCARGEWDLLWYFMDVWGKGTTVTVSS
# VL: B1 VL with V15I, N31S, H32W, F36Y, S46L, K61R, Y91A, V92N, T93S, Y94F
# notes: purified recombinant IgG, mouse strain #1
# B6: Clone 2, Mouse IgG (antibody, V domains shown)
# VH: B1 VH
# VL: B1 VL
# B7: Clone 2, Human IgG1 (antibody, V domains shown)
# VH: B1 VH
# VL: B1 VL
# B8: anti-CD30L Reference 1 antibody (antibody, human IgG1, lambda, V domains shown)
# VH: QVQLQESGPGLVKPSETLSLTCTVSGGSISSYIWSWIRQPAGKGLEWIGRIYASGNTNYNPSLKSRVTISVDTSKNQFSLKLSSMTAADTAVYYCARDYRVAGTYYYYYGLDVWGQGTTVTVSS
# VL: QSALTQPASVSGSPGQSITISCTGTSSDVGVYDYVSWYQQHPGKAPKLMIYEVSNRPSGVSNRFSGSKSGNTASLTISGLQTEDEADYYCSSYTSRSTWVFGGGTKLTVLG
# B9: Clone 1, Mouse IgG (antibody, V domains shown)
# VH: B3 VH
# VL: B3 VL
# B10: Clone 1, Human IgG1 (antibody, V domains shown)
# VH: B3 VH
# VL: B3 VL
# Target: T3, recombinant cynomolgus CD30L protein (cynomolgus)
# T3 construct: Recombinant protein of the ELISA; also called cyCD30L; cyno CD30L
# Experiment: ELISA, cyCD30L, 1/5000 dil
row,Elisa Binding (OD),Binder
1,1.23,B1
2,0.583,B2
3,1.16,B3
4,0.552,B4

# Target: T1, human CD30L expressed on B16 cells
# Experiment: flow cytometry on B16-huCD30L cells, MFI against Ab (nM)
row,EC50 (read off the curve) [nM],Binder
1,~2,B5

# Target: T3, recombinant cynomolgus CD30L protein
# Experiment: ELISA, cyCD30L, 1/500 dil
row,Elisa Binding (OD),Binder
1,3.18,B1
2,2.38,B2
3,2.87,B3
4,2.35,B4

# Target: T3, recombinant cynomolgus CD30L protein
# Experiment: ELISA, cyCD30L, 1/50 dil
row,Elisa Binding (OD),Binder
1,3.76,B1
2,2.58,B2
3,2.83,B3
4,3.2,B4

# Target: T2, recombinant human CD30L
# Experiment: ELISA on rhCD30L, OD 450 nm against Ab (nM)
row,EC50 (read off the curve) [nM],Binder
1,~0.1,B5

# Target: cynomolgus CD30L on HEK293 cells (cynomolgus)
# Experiment: cell-based or functional assay
row,Inhibition of IL-8 release in a dual cell assay (HEK293-cyCD30L cells + K299 cells) IC50 [nM],Binder
1,0.46,B6
2,0.24,B7
3,0.68,B8
4,0.55,B9
5,0.22,B10
